Where “and” joins values, the source holds several entries; their conditions need not be identical. Equal entries are not always repeated. Where two headings read alike, the source gives them in different places.

The term EC50 denotes the concentration giving half of the maximal effect. A low value points to higher potency in that assay.

In assay [1] the target is T1, human Nectin-4, full length on cells (human, UniProt Q96NY8 32-510).
T1 construct: whole, on cells; T-47D cells positive for Nectin-4 expression; also called Nectin-4 on T-47D cells; CHO-Nectin-4
T1 sequence (looked up): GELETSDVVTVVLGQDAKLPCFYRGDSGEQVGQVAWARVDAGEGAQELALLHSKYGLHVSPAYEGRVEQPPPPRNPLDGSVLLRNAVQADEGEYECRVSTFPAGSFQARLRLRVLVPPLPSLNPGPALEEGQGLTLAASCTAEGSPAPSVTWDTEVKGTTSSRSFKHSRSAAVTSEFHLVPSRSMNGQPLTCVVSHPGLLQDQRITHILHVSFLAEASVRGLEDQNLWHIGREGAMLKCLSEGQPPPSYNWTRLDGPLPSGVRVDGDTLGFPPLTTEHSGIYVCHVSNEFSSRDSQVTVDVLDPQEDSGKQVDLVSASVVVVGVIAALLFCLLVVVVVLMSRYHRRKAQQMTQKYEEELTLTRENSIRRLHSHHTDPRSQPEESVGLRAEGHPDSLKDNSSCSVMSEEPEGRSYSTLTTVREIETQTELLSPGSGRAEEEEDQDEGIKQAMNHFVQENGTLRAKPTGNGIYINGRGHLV
Put plainly: flow cytometry, T-47D cells, antibody bound on ice, 0 h at 37 C. As for the experimental part:
In this assay, the relative amount of antibodies remaining on the cell surface after co-incubation at 37° C. for a certain period of time was detected by FACS to reflect the endocytosis efficiency. The procedures are briefly described as follows: T-47D cells (human ductal breast cancer cells, derived from the Cell Bank of Chinese Academy of Sciences, Cat.No. TCHu 87); the antibodies of interest were adjusted to 10 µg/mL and co-incubated with the cells on ice for 1 h; the cells were washed 3 times with pre-cooled PBS, and then placed at 37° C. and incubated for 0 h, 2 h and 4 h; 0.2% N₃Na was added to stop the endocytosis reaction; the cells were washed with PBS thrice, followed by the addition of the PE-labeled anti-human Fc secondary antibody (Invitrogen 12-4998-82); the cells were incubated at 4° C. for 30 min; the red fluorescence signal was detected on a flow cytometer.
For orientation: A flow cytometer gives signals particle by particle.

Assay [2] has as its target T1, human Nectin-4, full length on cells. Put plainly: flow cytometry on T-47D cells. The procedure: In this study, the binding activity of different antibodies to T-47D cells positive for Nectin-4 expression was detected by FACS, and the EC₅₀ for the binding of antibodies to the cells was analyzed by a four-parameter method. The procedures are briefly described as follows: T-47D cells (the Cell Bank of Chinese Academy of Sciences, TCHu 87) were trypsinized; the antibodies were serially diluted and co-incubated with T-47D cells at 4° C. for 0.5-1 h, followed by the addition of the secondary PE-labeled anti-human Fc antibody (Invitrogen, 12-4998-82); the signal intensity of red fluorescence was detected on a flow cytometer, and curves were plotted using Graphpad Prism and the EC₅₀ was calculated.

Assay [3] deals with T2, human Nectin-4 extracellular antigen hNectin-4-His (human, UniProt Q96NY8 32-349).
T2 construct: C-terminal 8xHis tag included
T2 sequence: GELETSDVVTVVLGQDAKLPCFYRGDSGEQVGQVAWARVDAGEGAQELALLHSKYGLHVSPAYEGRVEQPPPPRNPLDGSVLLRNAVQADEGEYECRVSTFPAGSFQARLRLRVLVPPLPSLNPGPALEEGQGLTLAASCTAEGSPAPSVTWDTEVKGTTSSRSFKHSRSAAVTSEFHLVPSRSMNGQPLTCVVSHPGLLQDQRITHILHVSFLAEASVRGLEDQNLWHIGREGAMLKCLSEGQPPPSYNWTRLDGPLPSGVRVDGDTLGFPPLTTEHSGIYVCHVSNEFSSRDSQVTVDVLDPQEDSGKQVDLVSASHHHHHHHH
Put plainly: ELISA, coated hNectin-4-His. The source says:
(§1) The binding activity of the antibodies was detected by ELISA.
On the technique in general: ELISA stands for enzyme-linked immunosorbent assay.

Assay [4] deals with T2, human Nectin-4 extracellular antigen …. Put plainly: ELISA, coated hNectin-4-His.
Excerpt: as §1
This is another data set of the same source.

B1: antibody 1G8 (antibody, human IgG1, kappa, V domains shown)
VH: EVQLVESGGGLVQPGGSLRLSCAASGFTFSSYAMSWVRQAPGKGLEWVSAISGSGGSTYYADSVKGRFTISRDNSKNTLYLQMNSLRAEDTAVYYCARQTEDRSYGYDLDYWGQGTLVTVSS
VL: DIQMTQSPSSLSASVGDRVTITCRASQGISSYLAWYQQKPGKAPKLLIYAASSLQSGVPSRFSGSGSGTDFTLTISSLQPEDFATYYCQQHYTTPPTFGQGTKVEIKR
Consider B1, for which, in assay [1], the “MFI (mean fluorescence intensity) 0 h” value amounted to 105000 MFI. In addition, the EC50 in assay [2] is 0.109 µg/mL and 0.727 nM.

B2: antibody 10F4 (antibody, human IgG1, kappa, V domains shown)
VH: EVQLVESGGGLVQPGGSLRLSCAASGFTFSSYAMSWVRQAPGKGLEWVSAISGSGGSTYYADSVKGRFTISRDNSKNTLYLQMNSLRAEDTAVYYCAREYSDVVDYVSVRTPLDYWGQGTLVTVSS
VL: B1 VL
For the molecule B2, in assay [1], the “MFI (mean fluorescence intensity) 0 h” value is 104000 MFI. Besides, the EC50 in assay [2] is 0.156 µg/mL and 1.04 nM; in assay [3], 0.041 µg/mL and 0.043 µg/mL.

B3: antibody 1F3 (antibody, human IgG1, kappa, V domains shown)
VH: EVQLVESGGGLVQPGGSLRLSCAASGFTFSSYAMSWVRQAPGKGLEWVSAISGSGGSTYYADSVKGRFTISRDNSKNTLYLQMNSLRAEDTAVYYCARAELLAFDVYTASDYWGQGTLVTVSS
VL: B1 VL
As to B3, the “MFI (mean fluorescence intensity) 0 h” value in assay [1] was determined as 121000 MFI. Also, the EC50 in assay [2] is 0.116 µg/mL and 0.77 nM; in assay [4], 0.005 µg/mL.
